In this assay the target is T1, human PSMA (Prostate Specific Membrane Antigen, Glutamate Carboxypeptidase II) on cells (human, UniProt Q04609 1-750).
T1 construct: whole, on cells; the cell line is named under assay; also called cell surface expressed PSMA; FOLH1
In words: flow cytometry on LNCaP cells. As for the experimental part: Briefly, 50,000 target cells were stained with a dilution series of purified UniAbs™ for 30 minutes at 4° C. Following incubation, the cells were washed twice with flow cytometry buffer (1X PBS, 1% BSA, 0.1% NaN₃) and stained with goat F(ab')₂ anti-human IgG conjugated to R-phycoerythrin (PE) (Southern Biotech, cat. #2042-09) to detect cell-bound antibodies. After a 20-minute incubation at 4° C., the cells were washed twice with flow cytometry buffer and the mean fluorescence intensity (MFI) was measured by flow cytometry. The MFI of cells stained with secondary antibody alone were used for determination of background signal and binding of each antibody was converted to fold over background. Binding to cynomolgus PSMA positive cells was determined using the same protocol with the following modifications: the target cells were from Freestyle 293-F cells (ThermoFisher R79007) transiently transfected to express the extracellular domain of cynomolgus PSMA. In some experiments EC50 values were calculated using GraphPad Prism 7.
On the technique in general: In flow cytometry, cells or beads pass a laser one at a time.

T1 sequence (Q04609 whole entry): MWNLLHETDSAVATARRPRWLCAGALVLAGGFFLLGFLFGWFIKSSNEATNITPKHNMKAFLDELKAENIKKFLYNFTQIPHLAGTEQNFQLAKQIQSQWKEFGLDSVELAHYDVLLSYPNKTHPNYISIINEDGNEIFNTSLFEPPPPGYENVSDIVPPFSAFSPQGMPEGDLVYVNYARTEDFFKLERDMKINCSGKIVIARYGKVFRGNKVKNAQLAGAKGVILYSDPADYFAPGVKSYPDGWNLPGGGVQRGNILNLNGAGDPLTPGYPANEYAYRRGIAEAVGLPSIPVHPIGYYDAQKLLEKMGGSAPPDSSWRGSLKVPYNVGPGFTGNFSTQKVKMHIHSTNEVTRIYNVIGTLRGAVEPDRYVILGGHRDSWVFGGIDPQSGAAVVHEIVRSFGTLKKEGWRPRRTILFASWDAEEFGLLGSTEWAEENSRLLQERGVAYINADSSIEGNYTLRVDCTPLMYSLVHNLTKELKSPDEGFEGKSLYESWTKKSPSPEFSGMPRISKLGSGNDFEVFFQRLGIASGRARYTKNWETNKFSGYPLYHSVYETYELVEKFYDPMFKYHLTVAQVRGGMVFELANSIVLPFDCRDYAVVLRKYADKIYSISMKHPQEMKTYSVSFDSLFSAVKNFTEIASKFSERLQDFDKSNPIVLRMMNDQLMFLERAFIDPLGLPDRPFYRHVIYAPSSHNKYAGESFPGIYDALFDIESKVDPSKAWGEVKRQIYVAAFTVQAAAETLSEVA

B1: anti-PSMA heavy chain antibody clone ID 346172 (antibody, V domains shown)
VH: QLQLQESGPGLVKPSETLSLTCTVSGGSISSSSYYWGWIRQPPGKGLEWIGSIDYSGYTYYNPSLKSRVTISVDTSKNQFSLKLSSVTAADTAVYNCARHKAATADFDYRGQGTLVTVSS
notes: heavy chain-only antibody (UniAb), no light chain
Turning to B1, the “fold over the background MFI signal” value stood at 216 fold over background.

B2: anti-PSMA heavy chain antibody clone ID 326109 (antibody, V domains shown)
VH: QLQLQESGPGLVKPSETLSLTCTVSGGSISSNSYYWGWIRQSPGKGLEWLGSIYDSGSTHYNPSLKSRVIISGDTSKNQFSLKLSSVTAADTAVYYCARHKAATADFDYRGQGTLVTVSS
notes: as for B1
B2: the “fold over the background MFI signal” value was determined as 25 fold over background.

B3: anti-PSMA heavy chain antibody clone ID 325920 (antibody, V domains shown)
VH: QLQLQESGPGLVKPSETLSLTCTVSGGSISSSSYYWGWIRQPPGKGLEWIGSIDYSGYTYYNPSLQSRVTISVDTSKNQFSLKLSSVTAADTAVYNCARHKAATADFDYRGQGTLVTVSS
notes: heavy chain-only antibody (UniAb), no light chain; also called Antibody 2
On to B3, for which the “fold over the background MFI signal” value worked out at 282 fold over background.

B4: anti-PSMA heavy chain antibody clone ID 346165 (antibody, V domains shown)
VH: QLQLQESGPGLVKPSETLSLTCTVSGGSISSSSYYWGWIRQPPGKGLEWIGSVDYSGYTYYNPSLQSRVTISVDTSKNQFSLKLSSVTAADTAVYNCARHKAATADFDYRGQGTLVTVSS
notes: as for B1
On to B4, for which the “fold over the background MFI signal” value came to 243 fold over background.

B5: anti-PSMA heavy chain antibody clone ID 346181 (antibody, V domains shown)
VH: QLQLQESGPGLVKPSETLSLTCTVSGGSISSSNYFWGWIRQSPGKGLEWIGSIDYSGYTYYNPSLKSRVTISVDTSKNQFSLKLSSVTAADTAVYNCARHKAATADFDYRGQGTLVTVSS
notes: heavy chain-only antibody (UniAb), no light chain; also called HCAb 346181
For the molecule B5, the “fold over the background MFI signal” value came to 264 fold over background.

B6: anti-PSMA heavy chain antibody clone ID 325748 (antibody, V domains shown)
VH: QVQLVESGGGVVQPGRSLRLSCAASGFSFSSYGMHWVRQAPGKGLEGVAVIWYDGSNRYYADSVKGRFTISRDNSKNTLYLQMNSLRAEDTAVYYCAREPRIGYYYESSGYYSLDYRGQGTLVTVSS
notes: as for B1
Consider B6, for which the “fold over the background MFI signal” value is 193 fold over background.

B7: anti-PSMA heavy chain antibody clone ID 326027 (antibody, V domains shown)
VH: QVQLVESGGGVVQPGRSLRLSCAASGFSFRSYGMHWVRQAPGKGLEWVAVIWYDGSNKYYADSVKGRFTISRDNSKNTLYLQMNSLRAEDTAVYYCAREPRIGYYYDSSGYDSLDYRGQGTLVTVSS
notes: as for B1
For the molecule B7, the “fold over the background MFI signal” value was 138 fold over background.

B8: anti-PSMA heavy chain antibody clone ID 345444 (antibody, V domains shown)
VH: QVQLVESGGGVVQPGRSLRLSCAASGFTFSSYGMHWVRQAPGKGLEGVAVIWYDGSNRYYADSVKGRFTISRDNSKNTLYLQMNSLRAEDTAVYYCAREPRIGYYYESSGYYSLDYRGQGTLVTVSS
notes: as for B1
For B8, the “fold over the background MFI signal” value came out at 23 fold over background.

B9: anti-PSMA heavy chain antibody clone ID 345490 (antibody, V domains shown)
VH: QVQLVESGGGLVKPGGSLRLSCAASGFSFSSYGMHWVRQAPGKGLEGVAVIWYDGSNRYYADSVKGRFTISRDNSKNTLYLQMNSLRAEDTAVYYCAREPRIGYYYESSGYYSLDYRGQGTLVTVSS
notes: as for B1
For B9, the “fold over the background MFI signal” value amounted to 80 fold over background.

B10: anti-PSMA heavy chain antibody clone ID 345438 (antibody, V domains shown)
VH: QVQLVESGGGVVQPGRSLRLSCAASGFSFSSYGMHWVRQAPGKGPEWVAVIWYDGSNKYYADSVKGRFTISRDNSKNTLYLQMNSLRAEDTAVYYCAREPRIGYYYESSGYYSLDYRGQGTLVTVSS
notes: as for B1
As to B10, the “fold over the background MFI signal” value was found to be 13 fold over background.

B11: anti-PSMA heavy chain antibody clone ID 325836 (antibody, V domains shown)
VH: QVQLVESGGGVVQPGRSLRLSCAASGFSFRSYGMHWVRQAPGKGLEWVAVIWYDGSNKYYADSVKGRFTISRDYSKNTLYLQMNSLRAEDTAVYYCAREPRIGYYYDSSGYDSLDYRGQGTLVTVSS
notes: as for B1
As for B11, the “fold over the background MFI signal” value was 163 fold over background.

B12: anti-PSMA heavy chain antibody clone ID 345480 (antibody, V domains shown)
VH: QVQLVESGGGVVQPGRSLRLSCAASGFSFSSYGMHWVRQAPGKGLEWVAVIWYDGSNRYYADSVKGRFTISRDNSKNTLYLQMNSLRAEDTAVYYCAREPRIGYYYESSGYYSLDYRGQGTLVTVSS
notes: as for B1
For B12, the “fold over the background MFI signal” value is 47 fold over background.

B13: anti-PSMA heavy chain antibody clone ID 345443 (antibody, V domains shown)
VH: QVQLVESGGGVVQPGRSLRLSCAASGFSFSSYGMHWVRQAPGKGLEGVAVIWYDGSNRYYADSVKGRFTISRDNSKNTLFLQMNSLRAEDTAVYYCAREPRIGYYYESSGYYSLDYRGQGTLVTVSS
notes: as for B1
Turning to B13, the “fold over the background MFI signal” value was found to be 84 fold over background.

B14: anti-PSMA heavy chain antibody clone ID 325867 (antibody, V domains shown)
VH: QVQLVESGGGVVQPGRSLRLSCAASGFSFRSYGMHWVRQAPGKGLEWVAVIWYDGSNKYYADSVKGRFTISRDYSKNTLYLQMNSLRAEDTAVYYCAREPRIGYYYESSGYDSLDYRGQGTLVTVSS
notes: heavy chain-only antibody (UniAb), no light chain; also called Antibody 1
On to B14, for which the “fold over the background MFI signal” value was 210 fold over background.

B15: anti-PSMA heavy chain antibody clone ID 326028 (antibody, V domains shown)
VH: QVQLVESGGGVVQPGRSLRLSCAASGFSFRSYGMHWVRQAPGKGLEWVAVISYDGSNKYYADSVKGRFTISRDYSKNTLYLQMNSLRAEDTAVYYCAREPRIGYYYDSSGYDSLDYRGQGTLVTVSS
notes: as for B1
As to B15, the “fold over the background MFI signal” value came to 117 fold over background.

B16: anti-PSMA heavy chain antibody clone ID 326084 (antibody, V domains shown)
VH: QVQLVESGGGVVQPGRSLRLSCAASGFSFSSYGMHWVRQAPGKGLEGVAVIWYDGSNRYYADSVKGRFTISRDNSKNTLYLQMNSLRAEDTAVYYCAREPRIGYYYDSSGYYSLDYRGQGTLVTVSS
notes: as for B1
For the molecule B16, the “fold over the background MFI signal” value was found to be 125 fold over background.

B17: anti-PSMA heavy chain antibody clone ID 345447 (antibody, V domains shown)
VH: QVQLVESGGGVVQPGRSLRLSCAASGFSFSSYGMHWVRQAPGKGLEGVAVISYDGSNRYYADSVKGRFTISRDNSKNTLYLQMNSLRAEDTAVYYCAREPRIGYYYESSGYYSLDYRGQGTLVTVSS
notes: as for B1
In the case of B17, the “fold over the background MFI signal” value came to 14 fold over background.

B18: anti-PSMA heavy chain antibody clone ID 345463 (antibody, V domains shown)
VH: QVQLVESGGGVVQPGRSLRLSCAASGFIFRSYGMHWVRQAPGKGPEWVAVIWYDGSNKYYADSVKGRFTISRDNSKNTLYLQMNSLRAEDTAVYYCAREPRIGYYYESSGYYSLDYRGQGTLVTVSS
notes: as for B1
B18: the “fold over the background MFI signal” value was 68 fold over background.

B19: anti-PSMA heavy chain antibody clone ID 345461 (antibody, V domains shown)
VH: QVQLVESGGGVVQPGRSLRLSCAASGFSFTSYGMHWVRQAPGKGLEGVAVIWYDGSNRYYADSVKGRFTISRDNSKNTLYLQMNSLRAEDTAVYYCAREPRIGYYYESSGYYSLDYRGQGTLVTVSS
notes: as for B1
As to B19, the “fold over the background MFI signal” value came to 102 fold over background.

B20: anti-PSMA heavy chain antibody clone ID 325742 (antibody, V domains shown)
VH: QVQLVESGGGVVQPGRSLRLSCAASGFSFSSYGMHWVRQAPGKGLEWVAVIWYDGSNKYYADSVKGRFTISRDYSKNTLYLQMNSLRAEDTAVYYCAREPRIGYYYESSGYDSLDYRGQGTLVTVSS
notes: as for B1
On to B20, for which the “fold over the background MFI signal” value is 200 fold over background.

B21: anti-PSMA heavy chain antibody clone ID 345493 (antibody, V domains shown)
VH: QVQLVESGGGVVQPGRSLRLSCAASGFSFSRYGMHWVRQAPGKGLEWVAVIWYDGSNRYYADSVKGRFTISRDNSKNTLYLQMNSLRAEDTAVYYCAREPRIGYYYESSGYYSLDYRGQGTLVTVSS
notes: as for B1
Consider B21, for which the “fold over the background MFI signal” value came to 101 fold over background.

B22: anti-PSMA heavy chain antibody clone ID 345436 (antibody, V domains shown)
VH: QVQLVESGGGVVQPGRSLRLSCAASGFSFSRYGMHWVRQAPGKGLEGVAVIWYDGSNKYYADSVKGRFTISRDNSKNTLYLQMNSLRAEDTAVYYCAREPRIGYYYESSGYYSLDYRGQGTLVTVSS
notes: as for B1
With B22, the “fold over the background MFI signal” value came out at 87 fold over background.

B23: anti-PSMA heavy chain antibody clone ID 326116 (antibody, V domains shown)
VH: QVQLVESGGGVVQPGRSLRLSCAASGFSFSRYGMHWVRQAPGKGLEGVAVISYDGSNKYYADSVKGRFTISRDYSKNTLYLQMNSLRAEDTAVYYCAREPRIGYYYDSSGYDSLDYRGQGTLVTVSS
notes: as for B1
With B23, the “fold over the background MFI signal” value turned out to be 38 fold over background.

B24: anti-PSMA heavy chain antibody clone ID 345421 (antibody, V domains shown)
VH: QVQLVESVGGVVQPGRSLRLSCAASGFSFSSYGMHWVRQAPGKGLEGVAVIWYDGSNRYYADSVKGRFTISRDNSKNTLYLQMNSLRAEDTAVYYCAREPRIGYYYESSGYYSLDYRGQGTLVTVSS
notes: as for B1
B24: the “fold over the background MFI signal” value was found to be 22 fold over background.

B25: anti-PSMA heavy chain antibody clone ID 345485 (antibody, V domains shown)
VH: QVQLVESGGGVVQPGRSLRLSCAASGFSFRSYGMHWVRQAPGKGLEWVAVIWYDGSNKYYADSVKGRFTISRDNSKNTMYLQMNSLRAEDTAVYYCAREPRIGYYYESSGYYSLDYRGQGTLVTVSS
notes: as for B1
With B25, the “fold over the background MFI signal” value is 71 fold over background.

B26: anti-PSMA heavy chain antibody clone ID 325940 (antibody, V domains shown)
VH: QVQLVESGGGVVQPGRSLRLSCAASGFIFRSYGMHWVRQAPGKGPEWVAVIWYDGSNKYYADSVKGRFTISRDNSKNTLYLQMNSLRAEDTAVYYCAREPRIGYYYESSGYYSLDYRGQGTLVTVSS
notes: as for B1
In the case of B26, the “fold over the background MFI signal” value was 169 fold over background.

B27: anti-PSMA heavy chain antibody clone ID 345482 (antibody, V domains shown)
VH: QVQLVESGGGVVQPGRSLRLSCAASGFSFSSYGMHWVRQAPGKGLEGVAVIWYDGSNRYYADSVKGRFTISRDSSKNTLYLQMNSLRAEDTAVYYCAREPRIGYYYESSGYYSLDYRGQGTLVTVSS
notes: as for B1
Turning to B27, the “fold over the background MFI signal” value came to 80 fold over background.

B28: anti-PSMA heavy chain antibody clone ID 326029 (antibody, V domains shown)
VH: QVQLVESGGGVVQPGRSLRLSCAASGFSFSRYGMHWVRQAPGKGLEWVAVISYDGSNKYYADSVKGRFTISRDNSKNTLYLQMNSLRAEDTAVYYCAREPRVGYYYETSGYYSLDYRGQGTLVTVSS
notes: as for B1
As for B28, the “fold over the background MFI signal” value is 109 fold over background.

B29: anti-PSMA heavy chain antibody clone ID 326087 (antibody, V domains shown)
VH: QVQLVESGGGVVQPGRSLRLSCAASGFIFRSYGMHWVRQAPGKGPEWVAVIWYDGSNKYYADSVKGRFTISRDNSKNTLYLQMNSLRAEDTAVYYCAREPRIGYYYDSSGYDSLDYRGQGTLVTVSS
notes: as for B1
Turning to B29, the “fold over the background MFI signal” value was determined as 129 fold over background.

Values taken from patent publication US20220195068A1 (TENEOBIO, published 2022).
